Results: doi:10.1101/2025.11.10.687516 (bioRxiv, 2025)
Several values for one entry are separate records, joined by “and”; a condition that tells them apart may be missing. Equal values may be shown once. Read-outs that look alike come from different tables or passages of the source.

B1: PhnO (natural protein, UniProt P16691 1-144, looked up)
chain: MPACELRPATQYDTDAVYALICELKQAEFDHHAFRVGFNANLRDPNMRYHLALLDGEVVGMIGLHLQFHLHHVNWIGEIQELVVMPQARGLNVGSKLLAWAEEEARQAGAEMTELSTNVKRHDAHRFYLREGYEQSHFRFTKAL
B2: D-tagatose-1,6-bisphosphate aldolase subunit GatZ (natural protein, E. coli, UniProt P0C8J8 1-420, looked up)
chain: MKTLIARHKAGEHIGICSVCSAHPLVIEAALAFDRNSTRKVLIEATSNQVNQFGGYTGMTPADFREFVFTIADKVGFARERIILGGDHLGPNCWQQENADAAMEKSVELVKEYVRAGFSKIHLDASMSCAGDPIPLAPETVAERAAVLCFAAESVATDCQREQLSYVIGTEVPVPGGEASAIQSVHITHVEDAANTLRTHQKAFIARGLTEALTRVIAIVVQPGVEFDHSNIIHYQPQEAQPLAQWIENTRMVYEAHSTDYQTRTAYWELVRDHFAILKVGPALTFALREAIFALAQIEQELIAPENRSGCLAVIEEVMLDEPQYWKKYYRTGFNDSLLDIRYSLSDRIRYYWPHSRIKNSVETMMVNLEGVDIPLGMISQYLPKQFERIQSGELSAIPHQLIMDKIYDVLRAYRYGCAE
B3: GrxB (natural protein, E. coli, UniProt P0AC59 1-215, looked up)
chain: MKLYIYDHCPYCLKARMIFGLKNIPVELHVLLNDDAETPTRMVGQKQVPILQKDDSRYMPESMDIVHYVDKLDGKPLLTGKRSPAIEEWLRKVNGYANKLLLPRFAKSAFDEFSTPAARKYFVDKKEASAGNFADLLAHSDGLIKNISDDLRALDKLIVKPNAVNGELSEDDIQLFPLLRNLTLVAGINWPSRVADYRDNMAKQTQINLLSSMAI

Key:
[1] = biological target: the molecule itself; experiment: SEC
[2] = biological target: the molecule itself; experiment: SEC; remark: listed apart in the source

Protein | stoichiometry N [1] | stoichiometry N [2]
B1 | 2 | –
B2 | – | 2 and 4
B3 | – | 2
